# Source: a protein production outcome set (Wang et al. 2014)
# Test: label from the status in PepcDB records
# 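Note: failed if final PepcDB status was selected cloned or expressed and not failed if soluble or beyond.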
row,Sequence,protein production
1,MSVMYKKILYPTDFSETAEIALKHVKAFKTLKAEEVILLHVIDEREIKKRDIFSLLLGVAGLNKSVEEFENELKNKLTEEAKNKMENIKKELEDVGFKVKDIIVVGIPHEEIVKIAEDEGVDIIIMGSHGKTNLKEILLGSVTENVIKKSNKPVLVVKRKNS,not failed
2,MSVTVFIPGDSAALAVGANRVAEAIAREAASRNLDVQIVRNGSRGMLWLEVLVEVRTEHGRIAYGPVKAADVTSLFDADFLDGGDHRLCLGPTKDIPFLKNQTRLTFARCGVTDPLSLEDYRNYQGMKGLEKAVTMEPLAIVAQVTESGLRGRGGAGFPTGIKWKTVADARADQKYIVCNADEGDSGTFADRMIMEGDPFVLIEGMAIAGLAVGATKGFIYTRSEYPYAIKVMEKAIEIARREGILGSSVLGSGRAFDMEVRMGAGAYVCGEETSLLNSLEGKRGTVRAKPPLPALQGLFGKPTVVNNVISLASIPVIMDRGAAFYRDFGVGRSHGTIPIQLAGNIRYGGLYETAFGLTLGQLVNDIGGGTITGRPVKAVQVGGPLGAYFPVSLFDTIFDYEAFTAAGGLIGHAGIVVFDDTADMLHQARFALEFCAVESCGKCTPCRIGSTRGVETVDKIALGIEREKNTALLEDLCETMKFGSLCALGGFTPYPVMSALRHFPQDFAPIPRVEAAELEHHHHHH,failed
3,MSVTVRVPAKVNVQLAVGAARPDGFHDLANVFLAVSLYDEVTATPAADGLRVTCEGPDAGQVPLDRTNLAARAAEALAARYGRAPDVHLHIAKDIPVAGGMAGGSADGAGALLACDALWGTGASREELLEICAGLGSDVPFSLVGGAALGTGRGERLAELE,failed
4,MSWAAPDDIFFSTSLAAYLDKKLLVLLRDGRKLMGLLRSFDQFANAVLEEAYERVIVGDLYCDIPLGLYIIRGENVVLIGELDVEKEELPAHMVQVPEAEIKRAQKAEKEEMLLKGTMRKRMEFLDLD,failed
5,MSWTVDIPKEVLPDLPPLPEGMQQQFEDTISRDAKQQPTWDRAQAENVRKILESVPPIVVAPEVLELKQKLADVANGKAFLLQGGDCAETFESNTEPHIRANVKTLLQMAVVLTYGASTPVIKMARIAGQYAKPRSSDLDGNGLPNYRGDIVNGVEATPEARRHDPARMIRAYANASAAMNLVRALTSSGTADLYRLSEWNREFVANSPAGARYEALAREIDSGLRFMEACGVSDESLRAADIYCSHEALLVDYERSMLRLATDEEGNEELYDLSAHQLWIGERTRGMDDFHVNFASMISNPIGIKIGPGITPEEAVAYADKLDPNFEPGRLTIVARMGHDKVRSVLPGVIQAVEASGHKVIWQSDPMHGNTFTASNGYKTRHFDKVIDEVQGFFEVHRALGTHPGGIHIEFTGEDVTECLGGAEDITDVDLPGRYESACDPRLNTQQSLELAFLVAEMLRN,failed
6,MSYDVIVRNGLWFDGTGRPPQVRTLGIRDGVVATVSAKPLDETGCPEVIDAGGKWVVPGFIDVHTHYDAEVLLDPGLRESVRHGVTTVLLGMCSLSTVYSDAEDAADLFSRVEAVPRQFVLGALESRKTWSNPAEYVAAIDALPLGPNIASLLGHSDLRASVLGLDRATTRGVVPTDDELETMADRLDAALDAGMLGMSGMDAAIDKLDGDRFRSRALPSTFATWRERRRLIKVLRKRGRILQSAPNVAKAQEALNFFLESSSLFGRRRGVRMSLLVSADAKSSPGAARVIGMGTRLLNKTLDAKVRFQHLPVPFELYSDGIDLPVFEEFGAGTAALHLRDQLERNKLLADPEYRRRFRRSFDRRKLGPTLWHRDFHDATIVECPDESLIGKTFGRIADERGIHPLDAFLDVLVDNGEKNVRWTTIVANHRPKVLDQLANDPAVHMGFSDAGAHLRNMAFYNYPLRLLKRVRDAQLSGRPFLTTERAVYRLTAEVADWFGVDAGTLREGDRADFVVIDPNCLNSDVDAYHEETVPFYGGLSRMVNRNDDAVVATAVNGTVVFGKGEFRDGYGDTVKSGRYLRAGADSRLKTAVLEHHHHHH,failed
7,MSYIRLVTWNVDFDSPFNYERFTAIAEEVLGAKPGVVLFQEVSDLPFSSWQGEKEQSTITSARQHDSCYKVLLRRLEALYEPIVDLGLPSEQAYFVMAFVDRSKYRVHGYEYTEFENSSQGRGLLAIQLEPRDMCGDFKFRVLTSHLESGTACSEVRVQQMRQIAYEMLEGDTPAIFAGDTNFREKEKAGFEKEIAKAIGSEEMRLFDLFVEVGEPSHLRFTWDTRTNTNKVKELPPRFRPRARFDQVLFTRPFQANAMRLLGRERLGHAVFPSDHYGIYGELRF,failed
8,MSYSVMFALLLLTPLLFSLLCFACRKRRLSATRTVTVLHSLGITLLLILALWVVQTAADAGEIFAAGLWLHIDGLGGLFLAILGVIGFLTGIYSIGYMRHEVAHGELSPVTLCDYYGFFHLFLFTMLLVVTSNNLIVMWAAIEATTLSSAFLVGIYGQRSSLEAAWKYIIICTVGVAFGLFGTVLVYANAASVMPQAEMAIFWSEVLKQSSLLDPTLMLLAFVFLLIGFGTKTGLFPMHAWLPDAHSEAPSPVSALLSAVLLNCALLVLIRYYIIICQAIGSDFPNRLLLIFGMLSVAVAAFFILVQRDIKRLLAYSSVENMGLVAVELGIGGPLGIFAALLHILNHSLAKTLLFCGSGNVLLKYGTRDLNVVCGMLKIMPFTAVLFGGGALALAGMPPFNIFLSEFMTITAGLARNHLLIIVLLLLLLTLVLAGLVRMAARVLMAKPPQAVNRGDLGWLTTSPMVILLVMMLAMGTHIPQPVIRILAGASTIVLSGTHDLPAQRSTWHDFLPSGTASVSEKHSER,failed
9,MTAAIRRTVTFPGVSMARLKSMLGAYNGHLKQIEQRLDVQITHRGDAFYIDGDIDAVERAESLLQRLYNESETSDQISADILHLMIQGSQTDRELMDDSEQEHTGLDNVWLQTPKGRINPRGTNQKRYVQRILQSDISFGIGPAGTGKTYLAVAAAVDMLERNEIQRILLVRPAVEAGEKLGFLPGDLAQKIDPYLRPLYDALYEMLGFEKVAKLIERQVIEVAPLAYMRGRTLNHSFVILDEAQNTTPEQMKMFLTRLGFGSRAVITGDITQVDLPRGQQSGLAHALRVLEPIKEIHITRFHSRDVVRHQLVQKIVEAYEGWDSEQNRLSAEARAERKARQEALMSEHDAAADAQHQEA,failed
10,MTAAPAALHDRALHLLQTIWGYPAFRGVQGEIVQQVAEGGNALVLMPTGGGKSLCYQLPSLLRPGTGIVVSPLIALMKDQVDTLRQNGVRAAFLNSTLLPHEAREVEDALLRGDLDLLYVAPERLLMPRTLDLLERAPVALFAIDEAHCVSQWGHDFRPEYQQLSVLAERFPELPRVALTATADERTRADIKSVLRLEDAPQFVSSFDRPNIQYRVGLKDSPKTQLLHFIREEHPGDAGIVYCLSRKSVEETAKWLQAQGIDALAYHAGLSSTERNNVQERFLNEEGVIVCATVAFGMGIDKPNVRFVAHLDLPKSMEGYYQETGRAGRDGLPSTAWMVYGLSDVVNVRRMLAQSDAPEEVKRVEASKLDALLTYCEAATCRRQVLLHYFGEELSEPCGNCDVCLNPPRVRDLTREAQMALSATIRTGNRFGAAHLTDVLLGRETDKVLAQGHHQLPTFGVGKEHDEKLWRSVLRQLVSLGYLSADDHFGLRATGKSRGILKEGQKLLLREDTLLPGAGKSKRDRASASRAALDSHDAPLFEALRAWRLQKAKELSLPPYTIFHDATLKTIAELRPGSHATLGTVSGVGGRKLAAYGDEVLQVVRDSSGGGQAGPENLLDSPAFDPAVRGARNNNAVLDVLGSKGELQPQPKPAHPGVLGALRELRRTLAAEQGRSLSWVFPEATIDELARKLPTRSEELKDVFGLGGQRIQAFGDRILATIRAELTGGAPSPAPSAPAALFDEAVPPAPNADLSEALRELRRELMKETGYSAFVVFTNATLEALAARQPRTLAELAEVPGLGEKRIEAYGERILDAINTVLDG,failed
